# Assay results taken from paper PMC11980035.
# Molecular target: PRC2^amKR: PRC2 with EZH2 K510R, K514R, K515R (am-loop lysines mutated to arginines) (human) (UniProt Q15910)
substance,measurement,value
"PRC2^CXC: PRC2 with EZH2 K568A/Q570A/K574A/Q575A in the CXC domain, automethylated (from UniProt Q15910-2 1-751; Q15022 80-685; O75530 1-441; Q09028 1-425; Q6ZN18 1-517) (complex)","H3K27me3 generated by PRC2^amKR on mononucleosomes (HMTase assay, western blot) with 400 nM PRC2^CXC added",50%
